± gives the uncertainty stated by the source.
B1: Ankyrin-3, residues 4094 to 4171; numbered along this chain, Q12955 (parent)
chain: MAIVADHLGLSWTELARELNFSVDEINQIRVENPNSLISQSFMLLKKWVTRDGKNATTDALTSVLTKINRIDIVTLLE

Variants of: B1
Assay: abundance fitness (aPCA) (normalised: wild type 0, dead -1); higher = more abundant; growth selection in yeast, the domain comes from the species named
Details: Homo sapiens

Abundance fitness: each site, then its substitutions
E32: M -0.106 ± 0.077; Y -0.278 ± 0.2; I -0.621 ± 0.2; N -0.074 ± 0.15; G -0.202 ± 0.043; C -0.249 ± 0.093; H -0.396 ± 0.28; Q -0.1 ± 0.14; D 0.011 ± 0.085; P -0.593 ± 0.11; A -0.039 ± 0.057; S -0.185 ± 0.052; T -0.155 ± 0.086; V -0.316 ± 0.045; W -0.839 ± 0.19; R -0.126 ± 0.051; K -0.48 ± 0.21
S22: C 0.048 ± 0.5; Y -0.646 ± 0.37
N35: A -0.215 ± 0.068; D -0.053 ± 0.091; R -0.128 ± 0.047; T -0.018 ± 0.076; P -0.665 ± 0.12; Y -0.307 ± 0.14; S -0.174 ± 0.058; L -0.626 ± 0.065; G -0.065 ± 0.049; E -0.082 ± 0.091; W -0.487 ± 0.14; Q -0.077 ± 0.066; C -0.212 ± 0.11; I -0.337 ± 0.29; H -0.266 ± 0.13; V -0.48 ± 0.079; K -0.329 ± 0.12; F -0.499 ± 0.24
N27: F -0.244 ± 0.08; C -0.238 ± 0.099; A -0.082 ± 0.067; S -0.125 ± 0.06; E -0.191 ± 0.13; Q 0.012 ± 0.085; R -0.11 ± 0.044; G -0.798 ± 0.1; D -0.272 ± 0.12; V -0.373 ± 0.065; P -0.926 ± 0.39; H -0.06 ± 0.12; W -0.35 ± 0.097; L -0.383 ± 0.054; K -0.112 ± 0.11; Y -0.149 ± 0.14; T -0.174 ± 0.075
E25: T -0.334 ± 0.091; P -0.957 ± 0.13; D 0.03 ± 0.11; H -0.859 ± 0.23; Q -0.251 ± 0.045; N -0.63 ± 0.28; A -0.457 ± 0.097; I -0.754 ± 0.27; R -0.947 ± 0.14; F -0.771 ± 0.17; G -0.826 ± 0.14; M -0.739 ± 0.19; Y -0.792 ± 0.2; L -0.862 ± 0.12; W -0.887 ± 0.19; V -0.344 ± 0.072; K -0.808 ± 0.2
I29: T -0.752 ± 0.15; V -0.302 ± 0.057; W -0.979 ± 0.17; G -0.927 ± 0.12; S -0.846 ± 0.11; A -0.768 ± 0.11; P -0.808 ± 0.17; R -0.857 ± 0.16; F -0.765 ± 0.23; C -0.741 ± 0.18; E -0.174 ± 0.16; H -0.389 ± 0.39; L -0.456 ± 0.064
E18: Y -0.605 ± 0.17; G -0.455 ± 0.053; W -0.825 ± 0.16; K -0.532 ± 0.3; V -0.148 ± 0.053; R -1.09 ± 0.21; S -0.625 ± 0.095; H -0.317 ± 0.15; Q -0.388 ± 0.18; C -0.531 ± 0.12; T -0.427 ± 0.17; D -0.614 ± 0.3; M -0.339 ± 0.16; I -0.721 ± 0.22; F -0.451 ± 0.13; A -0.187 ± 0.053
D24: N -0.197 ± 0.2; Y -0.228 ± 0.14; S -0.199 ± 0.055; P -0.352 ± 0.086; M -0.424 ± 0.096; W -0.435 ± 0.077; C -0.342 ± 0.098; T -0.152 ± 0.12; I -0.4 ± 0.19; K -0.195 ± 0.087; F -0.621 ± 0.21; L -0.272 ± 0.063; E 0.053 ± 0.11; Q 0.063 ± 0.069; V -0.341 ± 0.069; H -0.068 ± 0.087
I26: L -0.96 ± 0.15; V -0.076 ± 0.074; W -0.871 ± 0.16; R -0.522 ± 0.11; S -0.805 ± 0.17; T -0.755 ± 0.27; M -0.544 ± 0.14; Q -0.594 ± 0.12; C -0.561 ± 0.14; E -0.848 ± 0.17; P -0.894 ± 0.14; D -0.886 ± 0.16; K -0.953 ± 0.26
L19: I -0.333 ± 0.14; S -1.05 ± 0.18; C -0.793 ± 0.23; T -0.927 ± 0.28; R -0.79 ± 0.094; G -1.01 ± 0.15; Q -0.781 ± 0.22; P -0.855 ± 0.12; M -0.33 ± 0.14; V -0.651 ± 0.1; H -0.694 ± 0.25; W -0.494 ± 0.078; A -0.591 ± 0.089
N20: K -0.169 ± 0.088; M -0.113 ± 0.086; A -0.162 ± 0.058; W -0.902 ± 0.17; P -1 ± 0.16; D 0.093 ± 0.14; V -0.608 ± 0.086; G -0.081 ± 0.054; H -0.035 ± 0.099; R -0.18 ± 0.047; L -0.191 ± 0.055; Q -0.329 ± 0.093; F -0.196 ± 0.12; I -0.609 ± 0.31; E -0.101 ± 0.073; C -0.348 ± 0.16; Y -0.348 ± 0.12
N33: W -0.204 ± 0.066; L -0.755 ± 0.11; M -0.143 ± 0.088; Q 0.093 ± 0.067; C 0.034 ± 0.1; H -0.023 ± 0.16; S -0.014 ± 0.055; G -0.607 ± 0.061
